Test results reported in PMC3774712, “Characterization of a Self-sufficient Trans-Anethole Oxygenase from Pseudomonas putida JYR-1” (PLoS ONE, 2013).

Assays:
GST-TAO (N1–104) = biological target: T1, GST-TAO (N1–104) (Pseudomonas putida, UniProt H8Y0R3); assay: ultrafiltration, fluorescence of unbound FAD; type: binding; details: 3 µM FAD, 3 µM enzyme, 20 mM Tris-HCl pH 8.0, 25°C
T1 construct: N-terminal fragment residues 1-104, N-terminal GST tag kept, expressed in E. coli BL21(DE3), purified
T1 sequence (H8Y0R3 1-104): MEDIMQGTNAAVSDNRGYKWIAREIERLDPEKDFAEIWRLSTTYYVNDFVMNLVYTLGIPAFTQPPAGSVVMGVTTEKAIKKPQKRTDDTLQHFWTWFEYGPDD
Text: ultrafiltration, fluorescence of unbound FAD on GST-TAO (N1–104)

[1] = biological target: T2, GST-TAO (wild-type, N1-348) (Pseudomonas putida, UniProt H8Y0R3); assay: ultrafiltration, fluorescence of unbound FAD; type: binding; details: 3 µM FAD, 3 µM enzyme, 20 mM Tris-HCl pH 8.0, 25°C
T2 construct: full length TAO (348 aa, 39,328 Da calculated), N-terminal GST tag kept (pGEX-5X-1), expressed in E. coli BL21(DE3), GSTrap purified, 68 kDa on SDS-PAGE
T2 sequence (H8Y0R3 1-348): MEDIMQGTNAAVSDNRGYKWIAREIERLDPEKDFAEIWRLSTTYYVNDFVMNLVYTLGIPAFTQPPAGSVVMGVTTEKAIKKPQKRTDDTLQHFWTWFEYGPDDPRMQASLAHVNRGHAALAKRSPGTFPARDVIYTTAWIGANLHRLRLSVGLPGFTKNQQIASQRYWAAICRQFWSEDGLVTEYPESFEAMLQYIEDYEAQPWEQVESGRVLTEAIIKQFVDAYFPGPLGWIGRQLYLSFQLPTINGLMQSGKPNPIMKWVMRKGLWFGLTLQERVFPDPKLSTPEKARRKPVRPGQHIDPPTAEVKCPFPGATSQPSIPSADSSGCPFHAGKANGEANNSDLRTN
Text: ultrafiltration, fluorescence of unbound FAD on GST-TAO (wild-type, N1-348)

GST-TAO (N175–348) = biological target: T3, GST-TAO (N175–348) (Pseudomonas putida, UniProt H8Y0R3); assay: ultrafiltration, fluorescence of unbound FAD; type: binding; details: 3 µM FAD, 3 µM enzyme, 20 mM Tris-HCl pH 8.0, 25°C
T3 construct: C-terminal fragment residues 175-348 (plasmid pGEX-TAO (C174)), N-terminal GST tag kept, expressed in E. coli BL21(DE3), purified
T3 sequence (H8Y0R3 175-348): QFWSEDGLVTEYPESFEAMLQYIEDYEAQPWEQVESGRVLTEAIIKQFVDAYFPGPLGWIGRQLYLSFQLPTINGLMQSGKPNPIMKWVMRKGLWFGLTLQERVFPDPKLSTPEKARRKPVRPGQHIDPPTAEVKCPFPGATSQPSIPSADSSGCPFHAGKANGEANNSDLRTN
Text: ultrafiltration, fluorescence of unbound FAD on GST-TAO (N175–348)

GST-TAO (N1–261) = biological target: T4, GST-TAO (N1–261) (Pseudomonas putida, UniProt H8Y0R3); assay: ultrafiltration, fluorescence of unbound FAD; type: binding; details: 3 µM FAD, 3 µM enzyme, 20 mM Tris-HCl pH 8.0, 25°C
T4 construct: N-terminal fragment residues 1-261, N-terminal GST tag kept, expressed in E. coli BL21(DE3), purified
T4 sequence (H8Y0R3 1-261): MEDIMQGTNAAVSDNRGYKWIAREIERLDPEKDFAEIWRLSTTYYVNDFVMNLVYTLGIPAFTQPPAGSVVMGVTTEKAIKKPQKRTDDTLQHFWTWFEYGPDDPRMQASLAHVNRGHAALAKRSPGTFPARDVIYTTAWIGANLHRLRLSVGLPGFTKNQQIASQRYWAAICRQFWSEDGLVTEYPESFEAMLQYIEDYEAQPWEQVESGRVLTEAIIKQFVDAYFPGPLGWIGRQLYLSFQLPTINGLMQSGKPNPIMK
Text: ultrafiltration, fluorescence of unbound FAD on GST-TAO (N1–261)

GST-TAO (N1–304) = biological target: T5, GST-TAO (N1–304) (Pseudomonas putida, UniProt H8Y0R3); assay: ultrafiltration, fluorescence of unbound FAD; type: binding; details: 3 µM FAD, 3 µM enzyme, 20 mM Tris-HCl pH 8.0, 25°C
T5 construct: N-terminal fragment residues 1-304, N-terminal GST tag kept, expressed in E. coli BL21(DE3), purified
T5 sequence (H8Y0R3 1-304): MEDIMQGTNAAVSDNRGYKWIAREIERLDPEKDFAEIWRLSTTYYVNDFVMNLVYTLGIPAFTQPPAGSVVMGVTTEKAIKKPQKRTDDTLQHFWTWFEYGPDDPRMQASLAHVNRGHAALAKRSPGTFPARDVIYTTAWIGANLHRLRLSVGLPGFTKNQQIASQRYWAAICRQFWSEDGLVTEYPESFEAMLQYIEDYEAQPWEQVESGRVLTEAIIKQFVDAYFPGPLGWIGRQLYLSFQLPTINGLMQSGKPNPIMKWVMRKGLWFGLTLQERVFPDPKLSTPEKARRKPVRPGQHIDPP
Text: ultrafiltration, fluorescence of unbound FAD on GST-TAO (N1–304)

GST-TAO (N1–174) = biological target: T6, GST-TAO (N1–174) (Pseudomonas putida, UniProt H8Y0R3); assay: ultrafiltration, fluorescence of unbound FAD; type: binding; details: 3 µM FAD, 3 µM enzyme, 20 mM Tris-HCl pH 8.0, 25°C
T6 construct: N-terminal fragment residues 1-174, N-terminal GST tag kept, expressed in E. coli BL21(DE3), purified
T6 sequence (H8Y0R3 1-174): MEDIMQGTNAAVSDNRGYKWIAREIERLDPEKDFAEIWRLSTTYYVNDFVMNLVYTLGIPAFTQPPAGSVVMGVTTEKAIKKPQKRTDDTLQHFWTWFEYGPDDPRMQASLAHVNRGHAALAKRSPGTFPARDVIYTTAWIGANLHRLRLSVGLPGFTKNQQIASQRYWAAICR
Text: ultrafiltration, fluorescence of unbound FAD on GST-TAO (N1–174)

purified protein [2] = substrate: CC=Cc1ccc(O)c(OC)c1; assay: purified protein; details: 10 mM NADH, 15 µM FAD, pH 8.0, 30°C, formate dehydrogenase regeneration
Text: (§1) HPLC of aldehyde product, Michaelis-Menten nonlinear regression on GST-TAO (wild-type, N1-348)

purified protein [3] = substrate: C/C=C/c1ccc(OC)c(OC)c1; assay: purified protein; details: 10 mM NADH, 15 µM FAD, pH 8.0, 30°C, formate dehydrogenase regeneration
Text: as §1

purified protein [4] = substrate: CC=Cc1ccc2c(c1)OCO2; assay: purified protein; details: 10 mM NADH, 15 µM FAD, pH 8.0, 30°C, formate dehydrogenase regeneration
Text: as §1

[5] = substrate: C/C=C/c1ccc(OC)cc1; assay: HPLC of p-anisaldehyde product, Michaelis-Menten nonlinear regression; type: biochemical, Pseudomonas putida; details: 10 mM NADH, 15 µM FAD, pH 8.0, 30°C, formate dehydrogenase regeneration, text b30 prints 64.70±2.40
Text: HPLC of p-anisaldehyde product, Michaelis-Menten nonlinear regression on GST-TAO (wild-type, N1-348)

## Cc1cc2nc3c(=O)[nH]c(=O)nc-3n(C[C@H](O)[C@H](O)[C@H](O)COP(=O)(O)OP(=O)(O)OC[C@H]3O[C@@H](n4cnc5c(N)ncnc54)[C@H](O)[C@@H]3O)c2cc1C [FAD]
GST-TAO (N1–104)
  μM FAD/μM enzyme: 0.20±0.01 µM FAD/µM enzyme
[1]
  μM FAD/μM enzyme: 0.30±0.05 µM FAD/µM enzyme
GST-TAO (N175–348)
  μM FAD/μM enzyme: 0.02±0.02 µM FAD/µM enzyme
GST-TAO (N1–261)
  μM FAD/μM enzyme: 0.15±0.04 µM FAD/µM enzyme
GST-TAO (N1–304)
  μM FAD/μM enzyme: 0.19±0.04 µM FAD/µM enzyme
GST-TAO (N1–174)
  μM FAD/μM enzyme: 0.18±0.03 µM FAD/µM enzyme

B1: GST-TAO (wild-type, N1-348) (Pseudomonas putida) (protein)
chain: T2 sequence (H8Y0R3 1-348)
notes: full length TAO (348 aa, 39,328 Da calculated), N-terminal GST tag kept (pGEX-5X-1), expressed in E. coli BL21(DE3), GSTrap purified, 68 kDa on SDS-PAGE
Purified protein [2]
  Km: 2255.00 ± 346.48 µM
  Vmax: 0.52 µmol/min/mg
  kcat: 1.13 s⁻¹
  kcat/Km: 500 M⁻¹ s⁻¹
Purified protein [3]
  Km: 225.65 ± 22.27 µM
  Vmax: 0.06 µmol/min/mg
  kcat: 0.13 s⁻¹
  kcat/Km: 560 M⁻¹ s⁻¹
Purified protein [4]
  Km: 229.50 ± 32.10 µM
  Vmax: 0.26 µmol/min/mg
  kcat: 0.56 s⁻¹
  kcat/Km: 2450 M⁻¹ s⁻¹
[5]
  Km: 63.70 ± 2.40 µM
  Vmax: 0.23 µmol/min/mg
  kcat: 0.49 s⁻¹
  kcat/Km: 7690 M⁻¹ s⁻¹
